Data published in PMC2886590 (Journal of molecular biology, 2010).
Where no end group is shown, it is not given here.

Molecular target: MLL PHD3 finger (residues 1565-1627), GST cleaved (human, UniProt Q03164 1565-1627)
Assay: other fluorescence titration

MLL PHD3 finger (residues 1565-1627), GST cleaved, sequence (Q03164 1565-1627): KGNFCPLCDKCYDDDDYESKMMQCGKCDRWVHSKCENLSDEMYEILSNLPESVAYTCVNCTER

Row | Binder | fold lower affinity than for H3K4me3
1 | ARTK(Me2)QTARKSTG [H3K4me2 peptide (12-mer histone tail peptide)] | 8 fold
2 | ARTK(Me)QTARKSTG [H3K4me1 peptide (12-mer histone tail peptide)] | 53 fold
